We go through 9 sequences from the supplement of paper PMC11316812.

One series deals with MCF7. As to the kind of experiment: percentage of EdU-negative (G0-arrested) nuclei per well, 72 h; higher = more G0 arrest. The settings on record: reference: sequence is the full UniProt precursor, the tested protein was the secreted form or ectodomain.
A further series relates to hTERT-HMEC. Described as above. The settings on record: reference: sequence is the full UniProt precursor, the tested protein was the secreted form or ectodomain.
The mark [1] stands for this setting: protein concentration 0.0305714 µM.
The mark [2] stands for this setting: protein concentration 0.305714 µM.
Where [3] appears, read: protein concentration 0.0122857 µM.
[4] abbreviates: protein concentration 0.122857 µM.
The mark [5] stands for this setting: protein concentration 0.0225 µM.
[6] abbreviates: protein concentration 0.01425 µM.
The mark [7] stands for this setting: protein concentration 0.1425 µM.
[8] abbreviates: protein concentration 0.0257143 µM.
[9] abbreviates: protein concentration 0.257143 µM.

± gives the standard deviation of the averaged measurements.
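Further: secreted proteins added to cultured cells, EdU pulse at the end, nuclei found by Hoechst imaging, EdU status from nuclear versus surrounding ring intensity ratio, PBS as neutral control.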

With “MKHSLNALLIFLIITSAWGGSKGPLDQLEKGGETAQSADPQWEQLNNKNLSMPLLPADFHKENTVTNDWIPEGEEDDDYLDLEKIFSEDDDYIDIVDSLSVSPTDSDVSAGNILQLFHGKSRIQRLNILNAKFAFNLYRVLKDQVNTFDNIFIAPVGISTAMGMISLGLKGETHEQVHSILHFKDFVNASSKYEITTIHNLFRKLTHRLFRRNFGYTLRSVNDLYIQKQFPILLDFKTKVREYYFAEAQIADFSDPAFISKTNNHIMKLTKGLIKDALENIDPATQMMILNCIYFKGSWVNKFPVEMTHNHNFRLNEREVVKVSMMQTKGNFLAANDQELDCDILQLEYVGGISMLIVVPHKMSGMKTLEAQLTPRVVERWQKSMTNRTREVLLPKFKLEKNYNLVESLKLMGIRMLFDKNGNMAGISDQRIAIDLFKHQGTITVNEEGTQATTVTTVGFMPLSTQVRFTVDRPFLFLIYEHRTSCLLFMGRVANPSRS”, the “percentage of EdU-negative” value in the series with MCF7 (setting [1]) stood at 27.6 ± 0.28%; with MCF7 (setting [2]), 30 ± 1.5%; in the series on hTERT-HMEC (setting [1]) it was 6.41 ± 0.77%; with hTERT-HMEC (setting [2]), 22.5 ± 9.3%.

For the sequence “MKILILGIFLFLCSTPAWAKEKHYYIGIIETTWDYASDHGEKKLISVDTEHSNIYLQNGPDRIGRLYKKALYLQYTDETFRTTIEKPVWLGFLGPIIKAETGDKVYVHLKNLASRPYTFHSHGITYYKEHEGAIYPDNTTDFQRADDKVYPGEQYTYMLLATEEQSPGEGDGNCVTRIYHSHIDAPKDIASGLIGPLIICKKDSLDKEKEKHIDREFVVMFSVVDENFSWYLEDNIKTYCSEPEKVDKDNEDFQESNRMYSVNGYTFGSLPGLSMCAEDRVKWYLFGMGNEVDVHAAFFHGQALTNKNYRIDTINLFPATLFDAYMVAQNPGEWMLSCQNLNHLKAGLQAFFQVQECNKSSSKDNIRGKHVRHYYIAAEEIIWNYAPSGIDIFTKENLTAPGSDSAVFFEQGTTRIGGSYKKLVYREYTDASFTNRKERGPEEEHLGILGPVIWAEVGDTIRVTFHNKGAYPLSIEPIGVRFNKNNEGTYYSPNYNPQSRSVPPSASHVAPTETFTYEWTVPKEVGPTNADPVCLAKMYYSAVEPTKDIFTGLIGPMKICKKGSLHANGRQKDVDKEFYLFPTVFDENESLLLEDNIRMFTTAPDQVDKEDEDFQESNKMHSMNGFMYGNQPGLTMCKGDSVVWYLFSAGNEADVHGIYFSGNTYLWRGERRDTANLFPQTSLTLHMWPDTEGTFNVECLTTDHYTGGMKQKYTVNQCRRQSEDSTFYLGERTYYIAAVEVEWDYSPQREWEKELHHLQEQNVSNAFLDKGEFYIGSKYKKVVYRQYTDSTFRVPVERKAEEEHLGILGPQLHADVGDKVKIIFKNMATRPYSIHAHGVQTESSTVTPTLPGETLTYVWKIPERSGAGTEDSACIPWAYYSTVDQVKDLYSGLIGPLIVCRRPYLKVFNPRRKLEFALLFLVFDENESWYLDDNIKTYSDHPEKVNKDDEEFIESNKMHAINGRMFGNLQGLTMHVGDEVNWYLMGMGNEIDLHTVHFHGHSFQYKHRGVYSSDVFDIFPGTYQTLEMFPRTPGIWLLHCHVTDHIHAGMETTYTVLQNEDTKSG”, the “percentage of EdU-negative” value in the series with MCF7 (setting [3]) was found to be 22.7 ± 3%; with MCF7 (setting [4]) it was 29.9 ± 0.94%; in the series with hTERT-HMEC (setting [3]), 5.56 ± 0.7%; in the series on hTERT-HMEC (setting [4]), 7.89 ± 0.25%.

Regarding “MKISILLMFLWGLSCALPVTRYQNNESEDSEEWKGHLAQAPTPPLESSESSEGSKVSSEEQANEDPSDSTQSEEGLGSDDHQYIYRLAGGFSRSTGKGGDDKDDDEDDSGDDTFGDDDSGPGPKDRQEGGNSRLGSDEDSDDTIQASEESAPQGQDSAQDTTSESRELDNEDRVDSKPEGGDSTQESESEEHWVGGGSDGESSHGDGSELDDEGMQSDDPESIRSERGNSRMNSAGMKSKESGENSEQANTQDSGGSQLLEHPSRKIFRKSRISEEDDRSELDDNNTMEEVKSDSTENSNSRDTGLSQPRRDSKGDSQEDSKENLSQEESQNVDGPSSESSQEANLSSQENSSESQEEVVSESRGDNPDPTTSYVEDQEDSDSSEEDSSHTLSHSKSESREEQADSESSESLNFSEESPESPEDENSSSQEGLQSHSSSAESQSEESHSEEDDSDSQDSSRSKEDSNSTESKSSSEEDGQLKNIEIESRKLTVDAYHNKPIGDQDDNDCQDGY”, the “percentage of EdU-negative” value with MCF7 (protein concentration 0.021 µM) amounted to 24.6 ± 0.6%; in the series with MCF7 (protein concentration 0.21 µM) it was 26.3 ± 0.99%; with hTERT-HMEC (protein concentration 0.021 µM), 4.74 ± 0.51%; in the series with hTERT-HMEC (protein concentration 0.21 µM), 14.1 ± 2.1%.

For the sequence “MKITGGLLLLCTVVYFCSSSEAASLSPKKVDCSIYKKYPVVAIPCPITYLPVCGSDYITYGNECHLCTESLKSNGRVQFLHDGSC”, the “percentage of EdU-negative” value with MCF7 (setting [5]) was determined as 23.6 ± 1.3%; with MCF7 (protein concentration 0.225 µM) it was 24.5 ± 2.9%; with hTERT-HMEC (setting [5]), 5.21 ± 1.1%; in the series on hTERT-HMEC (protein concentration 0.225 µM), 6.62 ± 0.67%.

On to “MKITSTSCICPVLVCLCFVQRCYGTAHHSSIKVMRNQTKHIEGETEVHHRPKRGWVWNQFFVLEEHMGPDPQYVGKLHSNSDKGDGSVKYILTGEGAGTIFIIDDTTGDIHSTKSLDREQKTHYVLHAQAIDRRTNKPLEPESEFIIKVQDINDNAPKFTDGPYIVTVPEMSDMGTSVLQVTATDADDPTYGNSARVVYSILQGQPYFSVDPKTGVIRTALHNMDREAREHYSVVIQAKDMAGQVGGLSGSTTVNITLTDVNDNPPRFPQKHYQLYVPESAQVGSAVGKIKANDADTGSNADMTYSIINGDGMGIFSISTDKETREGILSLKKPLNYEKKKSYTLNIEGANTHLDFRFSHLGPFKDATMLKIIVGDVDEPPLFSMPSYLMEVYENAKIGTVVGTVLAQDPDSTNSLVRYFINYNVEDDRFFNIDANTGTIRTTKVLDREETPWYNITVTASEIDNPDLLSHVTVGIRVLDVNDNPPELAREYDIIVCENSKPGQVIHTISATDKDDFANGPRFNFFLDERLPVNPNFTLKDNEDNTASILTRRRRFSRTVQDVYYLPIMISDGGIPSLSSSSTLTIRVCACERDGRVRTCHAEAFLSSAGLSTGALIAILLCVLILLAIVVLFITLRRSKKEPLIISEEDVRENVVTYDDEGGGEEDTEAFDITALRNPSAAEELKYRRDIRPEVKLTPRHQTSSTLESIDVQEFIKQRLAEADLDPSVPPYDSLQTYAYEGQRSEAGSISSLDSATTQSDQDYHYLGDWGPEFKKLAELYGEIESERTT”, for which the “percentage of EdU-negative” value was found to be 26 ± 2.9% in the series on MCF7 (setting [6]), 37 ± 4.3% in the series with MCF7 (setting [7]), 5.06 ± 0.45% in the series with hTERT-HMEC (setting [6]) and 7.93 ± 0.73% in the series with hTERT-HMEC (setting [7]).

As for “MKKFFTVAILAGSVLSTAHGSLLNLKAMVEAVTGRSAILSFVGYGCYCGLGGRGQPKDEVDWCCHAHDCCYQELFDQGCHPYVDHYDHTIENNTEIVCSDLNKTECDKQTCMCDKNMVLCLMNQTYREEYRGFLNVYCQGPTPNCSIYEPPPEEVTCSHQSPAPPAPP [Q9BZM2]”, the “percentage of EdU-negative” value was found to be 24.06 ± 0.22% in the series on MCF7 (setting [5]), 26 ± 1.2% in the series on MCF7 (protein concentration 0.225 µM), 5.18 ± 0.43% in the series with hTERT-HMEC (setting [5]) and 5.34 ± 1.1% with hTERT-HMEC (protein concentration 0.225 µM).

For the sequence “MKKSGVLFLLGIILLVLIGVQGTPVVRKGRCSCISTNQGTIHLQSLKDLKQFAPSPSCEKIEIIATLKNGVQTCLNPDSADVKELIKKWEKQVSQKKKQKNGKKHQKKKVLKVRKSQRSRQKKTT”, the “percentage of EdU-negative” value in the series on MCF7 (setting [8]) worked out at 24.8 ± 0.99%; in the series on MCF7 (setting [9]), 27.7 ± 2.3%; in the series on hTERT-HMEC (setting [8]) it was 4.62 ± 0.47%; with hTERT-HMEC (setting [9]) it was 6.18 ± 1.4%.

With “MKLAALLGLCVALSCSSAAAFLVGSAKPVAQPVAALESAAEAGAGTLANPLGTLNPLKLLLSSLGIPVNHLIEGSQKCVAELGPQAVGAVKALKALLGALTVFG [Q96QR1]”, the “percentage of EdU-negative” value in the series on MCF7 (setting [5]) was found to be 21.8 ± 1.8%; in the series on MCF7 (protein concentration 0.225 µM) it was 23.7 ± 1.3%; in the series on hTERT-HMEC (setting [5]), 5.9 ± 0.79%; in the series on hTERT-HMEC (protein concentration 0.225 µM), 5.2 ± 0.81%.

For the sequence “MKLAFLFLGPMALLLLAGYGCVLGASSGNLRTFVGCAVREFTFLAKKPGCRGLRITTDACWGRCETWEKPILEPPYIEAHHRVCTYNETKQVTVKLPNCAPGVDPFYTYPVAIRCDCGACSTATTECETI [Q86YW7]”, the “percentage of EdU-negative” value came to 25.3 ± 2.8% with MCF7 (setting [5]), 25.8 ± 1.5% with MCF7 (protein concentration 0.225 µM), 5.52 ± 0.71% in the series with hTERT-HMEC (setting [5]) and 5.1 ± 0.082% in the series with hTERT-HMEC (protein concentration 0.225 µM).
